Five molecules from patent US20250376539A1 (KIRA PHARMACEUTICALS SUZHOU, published 2025) can be followed below.

Test [1] deals with T1, recombinant human complement C2 (NP_000054.2), C-terminal 6His-tag, made in house (CHO cell expression) (human, UniProt P06681 21-752).
T1 construct: a linker before the tag is not described; also called human C2; Human C2
T1 sequence: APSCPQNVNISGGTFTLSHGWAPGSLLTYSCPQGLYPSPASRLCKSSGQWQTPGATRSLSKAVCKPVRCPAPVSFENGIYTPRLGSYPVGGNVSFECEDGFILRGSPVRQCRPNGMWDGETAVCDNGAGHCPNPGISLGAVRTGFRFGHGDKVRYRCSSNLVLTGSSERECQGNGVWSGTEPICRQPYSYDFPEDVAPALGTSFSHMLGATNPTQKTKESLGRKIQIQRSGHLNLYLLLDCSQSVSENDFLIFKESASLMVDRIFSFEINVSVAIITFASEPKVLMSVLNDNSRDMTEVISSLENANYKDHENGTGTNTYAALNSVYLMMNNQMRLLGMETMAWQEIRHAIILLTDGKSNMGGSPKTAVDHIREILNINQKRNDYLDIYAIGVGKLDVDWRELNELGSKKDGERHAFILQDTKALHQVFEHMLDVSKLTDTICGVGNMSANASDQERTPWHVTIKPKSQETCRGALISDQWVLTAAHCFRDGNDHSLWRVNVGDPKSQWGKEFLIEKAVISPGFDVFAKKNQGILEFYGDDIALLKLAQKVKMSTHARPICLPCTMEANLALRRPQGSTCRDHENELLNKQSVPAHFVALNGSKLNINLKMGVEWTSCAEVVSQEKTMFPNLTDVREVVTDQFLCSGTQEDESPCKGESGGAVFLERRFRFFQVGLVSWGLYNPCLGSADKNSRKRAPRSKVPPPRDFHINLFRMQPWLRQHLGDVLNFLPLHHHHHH
The test can be described thus: binding kinetics, neutral pH (BLI presumed).

The target in test [2] is T1, recombinant human complement C2 …. The test can be described thus: BLI (Gator); ratio of dissociation at pH 5.8 to pH 7.4. The procedure:
(§1) The histidine mutant constructs in Table 4 were tested for their pH-dependent dissociation from human C2. Probe-immobilized anti-C2 antibodies were incubated with C2 at pH 7.4 for 600s, followed by a 600s dissociation period in K Buffer at pH 7.4 or pH 5.8. The data were processed and analyzed by the Gator evaluation software.

Test [3] shares this target. The test can be described thus: BLI (Gator), antibody on probe; 600 s association at pH 7.4, 600 s dissociation at pH 5.8. The procedure: as §1
For test [4] the target is unchanged. Put plainly: BLI (Gator), antibody on probe; 600 s association at pH 7.4, 600 s dissociation at pH 7.4. The method, then:
as §1

B1: 3.2 H2-10 × L1-2 (antibody, V domains shown)
VH: EVQLLESGGGLVQPGGSLRLSCAASGFTFRHYAMSWVRQAPGKGLEWVSLISGSGASTHYADSVKGRFTISRDNSENMLYLQMNSLRAEDTAVYYCAKDSLAVAGSEYFQHWGQGTLVTVSS
VL: SYVLTQAPSVSVAPGQTARITCGHNYFGGKSVHWYQQRPGQAPVLVVYDDSDRPSGIPERFSGSKSGNTATLAISRVEAGDEAAYYCQVYDTSSDHWVFGGGTKLTVL
notes: Histidine mutant of 3.2
Turning to B1, in test [1], the Kd was 330 pM, the koff is 9.39e-05 s⁻¹ and the kon turned out to be 284000 M⁻¹ s⁻¹. Also, in test [2], the “Fold dissociation pH 5.8/pH 7.4” value was found to be 11.1 fold. Further, in test [3], the “Dissociation (%) pH 5.8” value was 56.5%. Moreover, in test [4], the “Dissociation (%) pH 7.4” value came out at 5.1%.

B2: 3.2 H2-10 × L1-4 (antibody, V domains shown)
VH: EVQLLESGGGLVQPGGSLRLSCAASGFTFRHYAMSWVRQAPGKGLEWVSLISGSGASTHYADSVKGRFTISRDNSENMLYLQMNSLRAEDTAVYYCAKDSLAVAGSEYFQHWGQGTLVTVSS
VL: SYVLTQAPSVSVAPGQTARITCGGNHFGGKSVHWYQQRPGQAPVLVVYDDSDRPSGIPERFSGSKSGNTATLAISRVEAGDEAAYYCQVYDTSSDHWVFGGGTKLTVL
notes: Histidine mutant of 3.2
For B2, in test [1], the Kd stood at 280 pM, the koff is 8.18e-05 s⁻¹ and the kon was determined as 293000 M⁻¹ s⁻¹. In addition, the “Fold dissociation pH 5.8/pH 7.4” value in test [2] was 9.5 fold. Further, in test [3], the “Dissociation (%) pH 5.8” value was 55.8%. In addition, the “Dissociation (%) pH 7.4” value in test [4] came out at 5.9%.

B3: 3.2 H2-10 × L3-6 (antibody, V domains shown)
VH: EVQLLESGGGLVQPGGSLRLSCAASGFTFRHYAMSWVRQAPGKGLEWVSLISGSGASTHYADSVKGRFTISRDNSENMLYLQMNSLRAEDTAVYYCAKDSLAVAGSEYFQHWGQGTLVTVSS
VL: SYVLTQAPSVSVAPGQTARITCGGNYFGGKSVHWYQQRPGQAPVLVVYDDSDRPSGIPERFSGSKSGNTATLAISRVEAGDEAAYYCQVYDTHSDHWVFGGGTKLTVL
notes: Histidine mutant of 3.2
B3: in test [1], the Kd was 420 pM, the koff was 0.000119 s⁻¹ and the kon is 283000 M⁻¹ s⁻¹. The “Fold dissociation pH 5.8/pH 7.4” value in test [2] stood at 9 fold. Further, in test [3], the “Dissociation (%) pH 5.8” value was 68.7%. In addition, the “Dissociation (%) pH 7.4” value in test [4] turned out to be 7.61%.

B4: 3.2 H2-10 × L1-5 (antibody, V domains shown)
VH: EVQLLESGGGLVQPGGSLRLSCAASGFTFRHYAMSWVRQAPGKGLEWVSLISGSGASTHYADSVKGRFTISRDNSENMLYLQMNSLRAEDTAVYYCAKDSLAVAGSEYFQHWGQGTLVTVSS
VL: SYVLTQAPSVSVAPGQTARITCGGNYHGGKSVHWYQQRPGQAPVLVVYDDSDRPSGIPERFSGSKSGNTATLAISRVEAGDEAAYYCQVYDTSSDHWVFGGGTKLTVL
notes: Histidine mutant of 3.2
Turning to B4, in test [1], the Kd was determined as 410 pM, the koff is 0.000112 s⁻¹ and the kon was determined as 272000 M⁻¹ s⁻¹. In addition, in test [2], the “Fold dissociation pH 5.8/pH 7.4” value is 10.4 fold. In addition, the “Dissociation (%) pH 5.8” value in test [3] came to 66.7%. For the same molecule, the “Dissociation (%) pH 7.4” value in test [4] is 6.42%.

B5: 3.2 H2-10 × L1-10 (antibody, V domains shown)
VH: EVQLLESGGGLVQPGGSLRLSCAASGFTFRHYAMSWVRQAPGKGLEWVSLISGSGASTHYADSVKGRFTISRDNSENMLYLQMNSLRAEDTAVYYCAKDSLAVAGSEYFQHWGQGTLVTVSS
VL: SYVLTQAPSVSVAPGQTARITCGGNYFGGKSHHWYQQRPGQAPVLVVYDDSDRPSGIPERFSGSKSGNTATLAISRVEAGDEAAYYCQVYDTSSDHWVFGGGTKLTVL
notes: Histidine mutant of 3.2
Turning to B5, in test [1], the Kd stood at 329 pM, the koff came out at 8.72e-05 s⁻¹ and the kon came to 265000 M⁻¹ s⁻¹. Besides, the “Fold dissociation pH 5.8/pH 7.4” value in test [2] stood at 10.4 fold. In test [3], the “Dissociation (%) pH 5.8” value turned out to be 56.6%. Further, the “Dissociation (%) pH 7.4” value in test [4] stood at 5.45%.
